# B1: light chain library clone L81 (Fab, V domains shown)
# VH: QVQLQESGPGLVKPSETLSLTCTVSGFSLIGYDINWIRQPPGKGLEWIGMIWGDGTTDYNSALKSRVTISKDTSKNQFSLKLSSVTAADTAVYYCARGGYYYGTSYYFDYWGQGTLVTVS
# VL: DIQMTQSPSSLSASVGDRVTITCRAFQAISNQLNWYQQKPGKAPKLLIYYTSRFHTGVPSRFSGSGSGTDFTFTISSLQPEDIATYYCQQSKTLPYTFGQGTKLEIKR
# notes: Substitutions derived by comparing printed CDRs with the 8L2-6D5 control
# Legend:
# [1] = target: T1, human nerve growth factor (NGF) (human, UniProt P01138 122-241); experiment: BIAcore SPR screening of Fab clones on immobilized human NGF
# T1 construct: Immobilized on CM5 chip in BIAcore assays; also called human NGF; hNGF
# Procedure: (§1) Affinities of anti-NGF Fabs and monoclonal antibodies were determined using the BIAcore3000™ surface plasmon resonance (SPR) system (BIAcore, INC, Piscaway N.J.). CM5 chips were activated with N-ethyl-N′-(3-dimethylaminopropyl)-carbodiinide hydrochloride (EDC) and N-hydroxysuccinimide (NHS) according to the supplier's instructions. Human NGF was diluted into 10 mM sodium acetate pH 4.0 and injected over the activated chip at a concentration of 0.005 mg/mL. Using variable flow time across the individual chip channels, two ranges of antigen density were achieved: 100-200 response units (RU) for detailed kinetic studies and 500-600 RU for screening assays. The chip was blocked with ethanolamine. […] HBS-EP buffer (0.01M HEPES, pH 7.4, 0.15 NaCl, 3 mM EDTA, 0.005% Surfactant […]) was used as running buffer for all the BIAcore assays.
# (§2) For affinity screening experiments, each library was further paired with the corresponding CDR-grafted light or heavy chain (for example, the H1/H2 library was paired with CDR-grafted light chain), the antibody was expressed, and affinity to human NGF of the individual clones was screened using the BIACORE surface plasmon resonance (SPR) system (BIAcore, Inc. Piscataway, N.J.) according to the manufacturer's instructions and as described above. koff, kₒₙ and KD were determined. […]
# [2] = target: T1, human nerve growth factor (NGF); experiment: BIAcore SPR; KD calculated from koff using kon 4e4 M^-1s^-1
# Procedure: as §1, §2
# T1 sequence (P01138 122-241 limits assumed): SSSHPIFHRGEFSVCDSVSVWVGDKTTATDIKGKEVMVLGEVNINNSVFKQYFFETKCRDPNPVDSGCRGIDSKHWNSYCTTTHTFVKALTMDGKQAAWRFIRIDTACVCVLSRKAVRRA
binder,measurement,setting,value
B1,koff,[1],0.00074 s⁻¹
same,Kd,[2],0.018 µM
